In this data set the target is PFV integrase wt (INPFV) (prototype foamy virus, UniProt P14350 752-1143). The data set can be described thus: fluorescence anisotropy; 1 mM Mg2+; stoichiometric IN + DNA; 20 mM Tris pH 7.2, 50 mM NaCl, 1 mM DTT, 10% DMSO, 1 mM (or 10 mM) Mg2+, 25 °C. To be noted: protein: recombinant, tags: His-tag, chain copies: 4.

B1: Fl-DNA#8 (dsDNA)
DNA 1: GGAATCTAGCGGCGCATCAAT
DNA 2: ATTGATGCGCCGCTAGATTCC
Take B1: the binding result (label: fluorescein, blunt) is recorded as “binds”.

B2: Fl-PFVCAAT (Fl-DNA#1) (dsDNA)
DNA 1: TATACAAAATTCCATGACAAT
DNA 2: ATTGTCATGGAATTTTGTATA
Take B2: the binding result (label: 5'-fluorescein on reactive strand, blunt) was “binds”.

B3: Fl-DNA#9 (dsDNA)
DNA 1: GGAATCTAGCGGCGCATAGGT
DNA 2: ACCTATGCGCCGCTAGATTCC
With B3, the binding result (label: fluorescein, blunt) is on record as “binds”.

B4: Fl-DNA#13 (processed LTR end) (dsDNA)
DNA 1: TATACAAAATTCCATGACA
DNA 2: ATTGTCATGGAATTTTGTATA
For B4, the binding result (label: fluorescein, 5' overhang 2 nt on non-transferred strand) is on record as “binds”.

The values are drawn from PMC5656594, “Probing Resistance Mutations in Retroviral Integrases by Direct Measurement of Dolutegravir Fluorescence”.
